The nature of this data set: soluble on expression in E. coli; label from the status in PepcDB or PDB records.
Turning to “MSLHHLTTYITHDTLISALGFGTQENLEAIRSYHSGITLQTDKRIADTPLLAATLSQERLQQQAEAIGVSGYPRMEQLFILTINELIRQSGQTLEDKTCGLILSTTKGNIDLLARHTEHPDEAVFLWKMAENIAGYFHAEERVHVISNACISGVSALIAGKRMIENGIYRRVIVAGGDLLSHFITSGFGSFRSLSSRPCRPYDSSRDGLNLGEACGAVLLSSEGTEEHVILSGGAVSNDANHISGPSRTGDGLYFAIRQAMQEAGTAPQDISFVNAHGTATVYNDEMESKALTLAHLEQVPVHSLKPYFGHTLGASGIIESIVCMHELKQGILFGTPGYETPGVPMPIPVYATHRSIPMKHCVKTASGFGGCNAAIVLSLPEYTPFKDEDNTLPEIRCTREVRIENSSVFINNELIFHSEEPDFGTFIRDTYKKTGGNNLKFYKMDDLCKLGYVAAEYLLEGKTFAPLEMGMLLANAASSLHTDIRHQQLIDREGDQAASPAVFVYTLPNVVSGEICIRHKIQGENTFFITEAYQPEKLERYARIVMQKGKLNYCIIGWCELWKNTYKAVFKLIEKEGHHHHHH”, the “soluble on expression in E. coli” value is listed as “soluble”.
The result for “MGSSHHHHHHSSGLVPRGSHMPLYYRSIIEEHMAVRKHVGIFDVSHMGDVTVSGKDASAFLDHMFPTKVSNLKNGECVYTAFLNDSGLMIDDTIVYRMGEDSYFFVPNAGTTEKIYRWVSDHSAGYSVKIENVSNRISSIALQGPESEEVLNELGFSYPGYFKFQYVSGKYMNAITGKDQIIISGTGYTGEKGVEFIIPNEHAVELWKKLLEAINKRNGLPAGLGARDTLRMEKGMLLSGHDFNEDRDPYEASVSFIVNNDEDFVGKKNLEIRRRSDHEIFRGFVLSDGIPRNGNPIKAGGKRVGTVTSGTISPVLNKGIALGYIDKAYSKENTEVMIEIRSVDHKAVVTKPRIVK” reads “soluble”; that for “MYPNQQFMRGKVRDLPDSGVIYLNRIKPIAQEFQQETTAEVEVSVQNIPRHGKSPSSFEKYNSVEERSPTRLPMITTSTTAPKILIEKKVNQQKQEFQKSKQSQLSVPEEAELDRLLDDLLKSDNIPKVILDFFFKMKMIQNFQKTLQLAKIGRRSSKRHVGAYKPKVISFDGTARVNKQHARAHASPTSIGLNPIKTYAYGSSSSQNRGPDFDPWERMGQKALCNLLGTLLLELERIWEHMGGFIDTESPAFFVNETLAQQHIACVFCNKLFNMPQTWEKAQNALNLAGCSNLGGAKKACNGIVNNANLTESFPNMLPHNVQLKDLACKKYCKEQ”, “soluble”.
The result for “LLEQESLPATGELYEHAACGLLVTLPNGTIERANLTFCRWLGLEREAVIGRRFQDLLNLAGKVFLQTHWAPLLQTQGSIAEVKVELIHADGRSVPMMLNAIRREYPSGFLHEVAVFLAEE” reads “not soluble”; that for “RVAVLVATHGNNTASSMVSVAKKLLGEGLVEGIDMPLDQSPKIVLDKLTERAKEMDMGRGLLLLVDMGSLTSFAPVISERTGIPVRSIDMVSTATVIEAVRKSNILDMELDSIYDSLKDFRGYGGYNSDDDTLDS”, “not soluble”; that for “MDALVANYASDSDSDGDAPAATAGEAAPVPPEPSALLPPPPLDLLQPPNFVDCSTMAQGSRVRSFPHVEGNYALHVYIPVVIPSDAKKHLVLVMRRAASFVPDLYAIDADYALSELCKDEQKLEKVLLSREFHVSLGRTVAIQVHQIESLVAMLRQKFRSQQRYWMDFNKWEHFVNDDCTRSFLSLEVTSTGLPEISKQITMVDDVYRLHGLPEFYKNPRPHISLAWALGDVSCKLKQAIKEIEKSQSSLGTSQISNLRCKFSHVVCKIGKKVYDICKLAD”, “not soluble”.
As to “MAHHHHHHMSSPERGASPPPAEEDKKEKRVIIILEGAHLQLIETKRYIYELANSMKHKHLLRDKKKEEEIRNFRPDILHQCLIHLLESALNKYGLLQVYIKTHDNQLFFVSSNLKIPKTYDQFESLMVTFLRKYKIKANEKNLCLLKFLKNDYNAILPINGKKIGLSVKGRKVHLPDYVQNFQNENMPVTFFIGAVAYSNPITKLENLDDNISISEFSLSAATCCSTICSEFENLWGVF”, the “soluble on expression in E. coli” value is given as “soluble”.
The result for “MSWMDKFDPKLQTMVKEVDAQIAPQLAKIDARILENQNKVLTSFQNHHVAESYLTGSTGYGHNDEGRDVLEAIYADVLGGEDALVRPQFVSGTHAIGVALLGLVRPGDDIVYITGKPYDTLQEVLGLAGNGIGAPQEYGIGVDYVDLLPNGAVDDDAVKARLNDKTKVVAIQRSRGYATRDSFTVDQIAAMIKVVRSVLPNVWIFVDNAYGEVSETKEPLEVGADVMAGSLFKNAGGGMAKTGGYIVGKKDLIDRISYRFTVPGLGGAEGATVGALADMYQGFFISPQTTGNAIKGAIFEAALFAKLGLDVSPAWDAPRTDLIQTVNFGNADDMVKFAKAVQANSPVDSFVTPIPEKMAGYEDQVIMAGGTFVAGSTIEFSGDGPLRPPYTLYLQGGLTYAHIKLATMGAAQSTFFDNLEHHHHHH” reads “not soluble”; that for “MRCPWRKTRRHSDNGWYGPRNQIRPDDHRLHRKVRKSRGDSRRAGNGSPRARCFEGAQRRGKSDGLSECGRMKNLLEMVELVRGKRMKIAVGAAEDEEVLKAVARAKEEEIVDPVLFGKRKDIETLVERMNLELEAEIVHVEDPFEAVRKAVESVSRNETQILMKGKIKTSDLFSVFLKKEYGLRTGRTLSAVSVHEVPGYHKILIISDGGLVISPNLQQRMDIVENSILVARALGIEKPKIALLGTGDLKSPLTLEIAALSKIFQQRNDCIVDGPLTLDLAISEELASKAGNSPVAGDADILIVPSIETGNILSKSLVYMARGRAAIVVVGGRVPVVLTSRADDEETRFLSIALSVLVAQKKG”, “soluble”; that for “MPVKPASPRSHPGCPELTHERYCDAQAKAEDARYRKYQRDPKINRRYGSRWRKIRAAYVAAHPLCEDCLEAGRYTPVQEVHHVLPIEHGGTHNFDNLQSLCKPCHSRQSALDDDRWRQQPRVYTYLEHHHHHH”, “soluble”.
The result for “MGSDKIHHHHHHVDGSTMIARNDDTFLPLTPQRFYVHPAEKNQPKRTWVSNQNGFTAPIPSDGYRYLATPNVEVDKEGVYAESGFNEKNVAMSATESVYGNPAALAIDPLVQNGLAEDSLQTMVLPYINSARDGVRYLGQLIKQYGSPEGNGVLFSDHDEVWYMEIVTGHHWVAQRIPDDAYAITANQVAIQQVSFDDPDNFMFSDGIQDFVTENHLNPDQAGWNFRHIFGTDTEKDRHYNTPRVWFGQRYLNPEIEQDPQSSDLPFICRTSHKISVEDVEYILSSHYNETKYDPFGQGAEADRLKFRPISMNRTQNSHVLQLRNDVPADRSAIFWLCFGVPAFSPYVPFFANVTDTDPTYSDTPVRLDDQSAYWMYRKLSMIVESHYSHFIEQDTDYLTATKQQLRTHVAKTLADAAALTGDELTAYLTAQNHQIVAAMRQSTTQFTNELIEKGLTLSKLTFNMDKNL” reads “not soluble”; that for “MTLPRLILPLLIAAACALGGCAYNPDLGRDQLLIVNDNNLARDGEKAWADALRTSHVSKEPRKNARVQAVGQRVIVAAGLAGRPWEYAVFLEEAPNAFVLPGGYVGVTVGLLSLVENDDQLAAVIGHEAGHVVARHAAERVSQETTSKVLLGIAKAAAGGTEFGKLLKDHGEDATRYGLLLPFSRKQELEADKLGVDFMQRAGYRPREAVKLWRNMQALDGGKSGGDLGSTHPSDAVRIQELERYLASKGWLEHHHHHH”, “not soluble”.
“SSHGIGDALGSDWPGREPRATDNRGQYLKGESWVSGRPGHPKLREVGFLRGEPPSAGPKGLGTWSELSHRYFELGQLPYAYPYYKVLPEGELRCVSLDRFNPGLSEETVEDEKTLKFFRWSADSRGVTGSAIFQISKSLMP”: the “soluble on expression in E. coli” value was “soluble”.
Regarding “MGSDKIHHHHHHMNHPSVFHPGPAAISPQQRLLLMHEGEWEDFIEECVRQLQKEGNYVEVVALGGSGDKGRDVCGYSKEYPAAGTWDLYQAKHYDSPLTPSEFFPELAKFVTCVWREDYTRPAKYFICASRDVGTTLFDLLKNPVRLKERLLDDWRKKGGKFGKFKQPLDADLEKFIEVFPFDVVKRLPPMELLSIHERDTASYWARFGVLAPRENDPEVPPKPVSSESTYVTALLRVYAEHAQVKIDDVPDIPPAHGAHFKAQRRLFYSAEGLHRFSRDKLPGAFEALLDEVENGIGAELTFPHESGFVRLHSVLKTANVLQIMNNPLRARLRSGDLQGSCHHLANQGRAQWVESDEADGESV”, the “soluble on expression in E. coli” value is “not soluble”.
To “MSLVLKCSLCINDERITKILTVNGRPICKECKAFLEHPPDKIKIRKELEELLSQVDKAIVAYSGGKDSTVALYLAKEEYDIDVEAVMVDHGFMAPQAIENAKKVSEYLNVPLTIIREDYSEIFKDALLKAKSPCRKCSRRTMEALRKYALEKGYKYIISGHELPFGHHPYRLMSGGIIQIRLLSLMSEKERMEILKKLPFKLPELPGYTSNCLILGPALERYWEKHGYSFEHRRIAALVRYGLLDREKALKKVEKPKVPEWQWELVEKKLNLIVRSLEGHHHHHH” belongs “soluble”; to “MLSEQKEIAMQVSGMTCAACAARIEKGLKRMPGVTDANVNLATETVNVIYDPAETGTAAIQEKIEKLGYHVVTEKAEFDIEGMTCAACANRIEKRLNKIEGVANAPVNFALETVTVEYNPKEASVSDLKEAVDKLGYKLKLKGEQDSIEGR”, “soluble”.
The result for “MGDEDDDESCAVELRITEANLTGHEEKVSVENFELLKVLGTGAYGKVFLVRKAGGHDAGKLYAMKVLRKAALVQRAKTQEHTRTERSVLELVRQAPFLVTLHYAFQTDAKLHLILDYVSGGEMFTHLYQRQYFKEAEVRVYGGEIVLALEHLHKLGIIYRDLKLENVLLDSEGHIVLTDFGLSKEFLTEEKERTFSFCGTIEYMAPEIIRSKTGHGKAVDWWSLGILLFELLTGASPFTLEGERNTQAEVSRRILKCSPPFPPRIGPVAQDLLQRLLCKDPKKRLGAGPQGAQEVRNHPFFQGLDWVALAARKIPAPFRPQIRSELDVGNFAEEFTRLEPVYSPPGSPPPGDPRIFQGYSFVAPSILFDHNNAVMTDGLEAPGAGDRPGRAAVARSAMMQYELDLREPALGQGSFSVCRRCRQRQSGQEFAVKILSRRLEANTQREVAALRLCQSHPNVVNLHEVHHDQPHTYLVLELLRGGELLEHIRKKRHFSESEASQILRSLVSAVSFMHEEAGVVHRDLKPENILYADDTPGAPVKIIDFGFARLRPQSPGVPMQTPCFTLQYAAPELLAQQGYDESCDLWSLGVILYMMLSGQVPFQGASGQGGQSQAAEIMCKIREGRFSLDGEAWQGVSEEAKELVRGLLTVDPAKRLKLEGLRGSSWLQDGSARSSPPLRTPDVLESSGPAVRSGLNATFMAFNRGKREGFFLKSVENAPLAKRRKQKLRSATASRRGSPAPANPGRAPVAAKGAPRRANGPLPPS” reads “soluble”.
To “MSLLKNVEVFWQNFLDKHELDMLMPDVWMFGDGSSEMGNRLGQLVVSGRKTATCSSLDIYKMEEEQLPKAGQYDIILDGQSQPLAIIRTTKVEIMPMNKVSESFAQAEGEGDLTLDYWYEEHARFFKEELAPYQLQFYPDMLLVCQSFEVVDLYTEKEEGGSHHHHHH” belongs “soluble”.
For the sequence “MGSDKIHHHHHHMGNKIYPIGIQNFESLRLDGYFYIDKTALIYQLVKSGRYYFLSRPRRFGKSLLISTLEAYFQGKKELFQGLAMEKLEKDWTKYPILHIDLNTQKYDSPQSLESKLNRTLVTWEKLYGSEPAEDSLSMRFEGTIQRAYEQTGQRVVILVDEYDKPMLQAIGNKELQNSFRETLKAFYGALKSKDGCIKFAMLTGVTKFGKVSVFSDLNNLDDISMWNEYIELCGISEKEIHKNLETELHEFADVQKMTYDSFCEKLRQYYDGYHFTHNSIGMYNPFSLLNAFKRKEFGSYWFETGTPTYLVELLKRHHYNLERMAHEETNAQVLNSIDSESTSPIPVIYQSGYLTIKGYDEEFGIYHLGFPNKEVEEGFIQFLVPYYTSMNNVESPFEI”, the “soluble on expression in E. coli” value is “not soluble”.
